Data published in paper PMC3424314 (Journal of immunology (Baltimore, Md. : 1950), 2012).

Biological target: CD40 receptor on a stable CHO cell line (Homo sapiens, UniProt P25942)
Assay: flow cytometry on cells

Sequence of CD40 receptor on a stable CHO cell line (P25942 21-277): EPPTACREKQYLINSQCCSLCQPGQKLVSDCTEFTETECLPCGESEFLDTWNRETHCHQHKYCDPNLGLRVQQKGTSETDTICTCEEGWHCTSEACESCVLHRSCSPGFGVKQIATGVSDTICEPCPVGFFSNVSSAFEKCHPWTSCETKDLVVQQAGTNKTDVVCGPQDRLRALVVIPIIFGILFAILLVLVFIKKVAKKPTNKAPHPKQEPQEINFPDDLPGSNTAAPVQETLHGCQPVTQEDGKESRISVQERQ

| binding result | Binder |
| --- | --- |
| binds | anti-CD40 rAb with H chain C-terminal dockerin (antibody, V domains shown) VH: EVKLVESGGGLVQPGGSLKLSCATSGFTFSDYYMYWVRQTPEKRLEWVAYINSGGGSTYYPDTVKGRFTISRDNAKNTLYLQMSRLKSEDTAMYYCARRGLPFHAMDYWGQGTSVTVSS VL: DIQMTQTTSSLSASLGDRVTISCSASQGISNYLNWYQQKPDGTVKLLIYYTSILHSGVPSRFSGSGSGTDYSLTIGNLEPEDIATYYCQQFNKLPPTFGGGTKLEIK |
| binds | recombinant anti-CD40 rAb (antibody, V domains shown) VH: EVKLVESGGGLVQPGGSLKLSCATSGFTFSDYYMYWVRQTPEKRLEWVAYINSGGGSTYYPDTVKGRFTISRDNAKNTLYLQMSRLKSEDTAMYYCARRGLPFHAMDYWGQGTSVTVSS VL: DIQMTQTTSSLSASLGDRVTISCSASQGISNYLNWYQQKPDGTVKLLIYYTSILHSGVPSRFSGSGSGTDYSLTIGNLEPEDIATYYCQQFNKLPPTFGGGTKLEIK |
